Assay results: article PMC4243058

Target: Fzd2 pTyr552 peptide (phosphorylated 18-mer)
Assay: SPR

Kd: 2.1 nM
Substance: GST-FynSH2 (SH2 domain of Fyn) (from UniProt P06241 149-246) (domain or fragment)
